This is an account of results in article PMC4762649, “Tel1 and Rif2 Regulate MRX Functions in End-Tethering and Repair of DNA Double-Strand Breaks” (PLoS Biology, 2016).

Where a chain is given by its changes, count along the chain named.

Common to all, as to conditions: both partners purified
Test [1] concerns the target T1, MR^V1269MX complex (Mre11-Rad50-V1269M-Xrs2) (S. cerevisiae, UniProt P32829 1-692; P12753 1-1312; P33301 1-854, V1269M).
T1 construct: Mre11, S. cerevisiae; as m3; Rad50, S. cerevisiae, with V1269M; as m2; Xrs2, S. cerevisiae; as m4; also called mutant MRX complex; source: subunits overexpressed in yeast and purified, assembled and separated by gel filtration; copies: + +
The test is described as follows: pull-down; Flag-tagged Tel1 (50 ng) incubated with MR^V1269MX (100 ng) in the absence or presence of Rif2 (100 ng); captured on anti-Flag resin; immunoblotting.

Another test addresses T2, Rad50-V1269M (S. cerevisiae, UniProt P12753 1-1312, V1269M).
T2 construct: Allele isolated after ethyl methanesulfonate mutagenesis; also called Rad50-V1269M mutant; purified Rad50-V1269M; source: overexpressed in yeast, purified (procedure devised for the wild-type protein)
T2 sequence (looked up): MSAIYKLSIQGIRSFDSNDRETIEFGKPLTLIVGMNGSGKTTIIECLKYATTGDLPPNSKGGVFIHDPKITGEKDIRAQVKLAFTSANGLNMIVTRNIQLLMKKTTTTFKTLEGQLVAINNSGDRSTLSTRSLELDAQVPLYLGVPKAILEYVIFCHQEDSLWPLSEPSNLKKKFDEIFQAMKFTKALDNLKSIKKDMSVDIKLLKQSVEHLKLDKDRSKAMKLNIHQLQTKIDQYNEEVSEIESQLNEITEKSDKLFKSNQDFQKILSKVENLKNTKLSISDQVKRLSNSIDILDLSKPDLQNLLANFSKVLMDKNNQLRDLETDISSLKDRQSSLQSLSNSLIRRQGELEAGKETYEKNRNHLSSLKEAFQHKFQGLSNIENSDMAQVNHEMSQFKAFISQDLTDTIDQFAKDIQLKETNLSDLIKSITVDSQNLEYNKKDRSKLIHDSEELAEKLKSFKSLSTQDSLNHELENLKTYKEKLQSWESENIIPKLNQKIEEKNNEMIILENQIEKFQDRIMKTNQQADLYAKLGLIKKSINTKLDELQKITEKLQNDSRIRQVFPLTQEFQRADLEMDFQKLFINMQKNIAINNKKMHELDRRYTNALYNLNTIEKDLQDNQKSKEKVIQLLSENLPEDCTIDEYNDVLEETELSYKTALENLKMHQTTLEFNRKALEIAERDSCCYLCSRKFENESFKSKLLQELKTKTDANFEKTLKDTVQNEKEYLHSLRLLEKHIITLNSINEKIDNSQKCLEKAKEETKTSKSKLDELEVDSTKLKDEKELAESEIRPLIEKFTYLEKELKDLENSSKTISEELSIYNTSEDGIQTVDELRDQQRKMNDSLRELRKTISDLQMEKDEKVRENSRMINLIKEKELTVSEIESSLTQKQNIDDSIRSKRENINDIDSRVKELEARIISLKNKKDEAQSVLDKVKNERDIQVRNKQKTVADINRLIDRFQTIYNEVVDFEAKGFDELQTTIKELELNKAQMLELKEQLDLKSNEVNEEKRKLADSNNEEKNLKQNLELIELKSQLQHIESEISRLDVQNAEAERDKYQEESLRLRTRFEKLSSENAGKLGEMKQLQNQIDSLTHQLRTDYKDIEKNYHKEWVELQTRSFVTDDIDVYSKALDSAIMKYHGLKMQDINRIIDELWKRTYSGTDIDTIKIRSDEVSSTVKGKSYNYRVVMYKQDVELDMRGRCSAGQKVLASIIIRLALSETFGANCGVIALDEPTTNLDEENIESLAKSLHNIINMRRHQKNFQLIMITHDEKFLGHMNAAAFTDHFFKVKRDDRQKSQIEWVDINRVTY
As to the kind of experiment: SEC; Rad50 (or Rad50-V1269M), Mre11 and Xrs2 incubated together 5 h on ice; assembled complex separated from unassembled proteins on a Sephacryl S-400 gel filtration column; 0-4°C.

The next test addresses T3, Rad50 (S. cerevisiae, UniProt P12753 1-1312).
T3 construct: Rad50, S. cerevisiae, subunit of the MRX complex; also called wild-type Rad50; purified Rad50; source: overexpressed in yeast, purified
T3 sequence (looked up): T2 sequence (looked up) with M1269V
Described as above.

B1: (His)6-tagged Rif2 (natural protein, S. cerevisiae, UniProt Q06208 1-395, looked up)
chain: MEHVDSDFAPIRRSKKVVDSDKIVKAISDDLEQKNFTVLRKLNLVPIKKSVSSPKVCKPSPVKERVDHVFYQKFKSMALQELGTNYLSISYVPSLSKFLSKNLRSMKNCIVFFDKVEHIHQYAGIDRAVSETLSLVDINVVIIEMNDYLMKEGIQSSKSKECIESMGQASYSGQLDFEASEKPSNHTSDLMMMVMRKINNDESIDHIVYFKFEQLDKLSTSTIIEPSKLTEFINVLSVLEKSNNIAFKVLIYSNNVSISSLLSTSLKKKLNTKYTVFEMPILTCAQEQEYLKKMIKFTFDSGSKLLQSYNSLVTCQLNNKESNLAIFFEFLKVFPHPFTYLFNAYTEIIVQSRTFDELLDKIRNRLTIKNYPHSAYNFKKNQRLPLKLTRKVHDR
notes: Rif2, S. cerevisiae; expressed from pET-Rif2 (gift from K. Sugimoto); No removal of the tag is described; the final preparation is called (His)6-Rif2; also called (His)6-Rif2; purified Rif2; source: E. coli BL21 Rosetta, purified (Ni-NTA, SP Sepharose, Mono S, Superdex 200)
With B1, the binding result in test [1] is recorded as “binds”.

B2: Mre11 (natural protein, S. cerevisiae, UniProt P32829 1-692, looked up)
chain: MDYPDPDTIRILITTDNHVGYNENDPITGDDSWKTFHEVMMLAKNNNVDMVVQSGDLFHVNKPSKKSLYQVLKTLRLCCMGDKPCELELLSDPSQVFHYDEFTNVNYEDPNFNISIPVFGISGNHDDASGDSLLCPMDILHATGLINHFGKVIESDKIKVVPLLFQKGSTKLALYGLAAVRDERLFRTFKDGGVTFEVPTMREGEWFNLMCVHQNHTGHTNTAFLPEQFLPDFLDMVIWGHEHECIPNLVHNPIKNFDVLQPGSSVATSLCEAEAQPKYVFILDIKYGEAPKMTPIPLETIRTFKMKSISLQDVPHLRPHDKDATSKYLIEQVEEMIRDANEETKQKLADDGEGDMVAELPKPLIRLRVDYSAPSNTQSPIDYQVENPRRFSNRFVGRVANGNNVVQFYKKRSPVTRSKKSGINGTSISDRDVEKLFSESGGELEVQTLVNDLLNKMQLSLLPEVGLNEAVKKFVDKDEKTALKEFISHEISNEVGILSTNEEFLRTDDAEEMKALIKQVKRANSVRPTPPKENDETNFAFNGNGLDSFRSSNREVRTGSPDITQSHVDNESRITHISQAESSKPTSKPKRVRTATKKKIPAFSDSTVISDAENELGDNNDAQDDVDIDENDIIMVSTDEEDASYGLLNGRKTKTKTRPAASTKTASRRGKGRASRTPKTDILGSLLAKKRK
notes: Mre11, S. cerevisiae, subunit of the MRX complex; also called purified Mre11; source: overexpressed in yeast, purified
Regarding B2, the binding result with Rad50-V1269M is reported as “binds”.

B3: Xrs2 (natural protein, S. cerevisiae, UniProt P33301 1-854, looked up)
chain: MWVVRYQNTLEDGSISFISCCLQAFKTYSIGRSSKNPLIIKNDKSISRQHITFKWEINNSSDLKHSSLCLVNKGKLTSLNKKFMKVGETFTINASDVLKSTIIELGTTPIRIEFEWINEVWNIPPHLTQFRTMLSEYGISTEISINDIPANLMISDYPKSEDNSIRELYALVSTIPMKKSRFLMELCNTLLPTSKTNLKFDEMWNDMISNPEYNVFDFDPNILLSKFMRLNNIRVLTTIKSEPRLSSLLRTFNINLFAFDNIDSLYKYVDSLEASTEYLILTTTDKKENGKILCTIKTMLTSIIDGTLSAVINMKGASSRTLDNGKFDQISEGMSTILKTSRAPEVEASPVVSKKRKLNRRRVLPLDSLDFFAGGLSTKTLSENRSLTDAKRLNCGAESKTVISSPNIAEADEKHAPFLQNALKPTEDIGKKSGHSSPGAIIVSSPNLGTVNTSEDSLDKSLQSHKLPQPSLPEVAGIGSQTISSNSADYETAAVNSMDDAEVTKNFRVNHHQNIEQPSKNIRKLSNYSREISSPLQENCKSPVKELSIKEKSGTPHAFVEAIQETKNREVKRVKSTIVELKDEELSEEAINQLKNLAIVEPSNNLLRKSFDSEGNKTSRTTEKWENSLMEPEWHKRKNFKTFVKVRPKSKAHKEEGKNNTQSSDFIRNAAFLITRNYVPLKKYSKKDTTTKWGTEENEDMFALTEMERFGSNTFMSDNINSNTIQKRSQALNRFTNEDSSNEGEEDSFSFSRCSGTAASVQPLKNKIFITDEDDLGDIDDKSDRLNHRENNRNLFVVKEMNLRPNLSEECSKQSRHSRSATSRSRGSFGASNNGDGDDDDDDGPKFTFKRRKG
notes: Xrs2, S. cerevisiae, subunit of the MRX complex; also called purified Xrs2; source: overexpressed in yeast, purified
With B3, the binding result with Rad50 and with Rad50-V1269M was “binds” each time.
